Source: a protein production outcome set (Wang et al. 2014)

Test: label from the status in PepcDB records
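Also: failed if final PepcDB status was selected cloned or expressed and not failed if soluble or beyond.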

Sequence	protein production
ERLRGVSVEAPTRTGERWNALMDQIVEGVLAWHRIDSHGCVGNVDSTQENDWFSWYQQRVEVLWATLSNMNSPLMTLEDRAVLYRARAALNSLFAGFDDSSVLVHGNLTLRSMLKDPRSDQLLAMLNPGPMLWAPREYDLFRLSEEGMPSQLFYRYLSKAPVSESFVARRWLYTLWELVSRFIHTGNLDRTLFDNAAQQLLPWLE	failed
MADSENMYILSEDEDVCPTCLEEYTSENPKIVTKCSHHFHLSCIYEWMERSENCPVCGKVMEFNETP	failed
MACGEFSLIARYFDRVRSSRLDVELGIGDDCALLNIPEKQTLAISTDTLVAGNHFLPDIDPADLAYKALAVNLSDLAAMGADPAWLTLALTLPDVDEAWLESFSDSLFDLLNYYDMQLIGGDTTRGPLSMTLGIHGFVPMGRALTRSGAKPGDWIYVTGTPGDSAAGLAILQNRLQVADAKDADYLIKRHLRPSPRILQGQALRDLANSAIDLSDGLISDLGHIVKASDCGARIDLALLPFSDALSRHVVPEQALRWALSGGEDYELCFTVPELNRGALDVALGHLGVPFTCIGQMTADIEGLCFIRDGEPVTLDWKGYDHFATP	not failed
MSELNLSPDKLTVLLMGGSFGAGNIKETLDELLDTDRDFQILVITGKNESLKEKIEKKLMSRYHDKNVCVLGYTDKMNDILASIDVLVSKPGGLTTTEALLKDVPMIVPYYIPGQEEENLDFLSNCGAALRTTKKYNLSILLKVLIDDPSRLEMLKRNIKSIRKSNSAQNIANLILNIISGLEHHHHHH	failed
ELVVKRGEIFGVVGPTGSGKSNLISDIEQLAQGDTPSNRKILVNGNVPDTEMRRDPRKRRIAQLSQNMNFLADMTVEEFLIMHAKSRGMNSEGIVDKVIKLANNLTGEPIEKDYNLTILSGGQSRSLMVADVAVISDSPIVLIDEIENAGIKKHEALELLAGCGKIVMVITHDPVLALMTTRRVVMRNGGMNEIIETTE	failed
MEEKQILCVGLVVLDVISLVDKYPKEDSEIRCLSQRWQRGGNASNSCTILSLLGAPCAFMGSMAPGHVADFVLDDLRRYSVDLRYTVFQTTGSVPIATVIINEASGSRTILYYDRSLPDVSATDFEKVDLTQFKWIHIEGRNASEQVKMLQRIDAHNTRQPPEQKIRVSVEVEKPREELFQLFGYGDVVFVSKDVAKHLGFQSAEEALRGLYGRVRKGAVLVCAWAEEGADALGPDGKLLHSDAFPPPRVVDTLGAGDTFNASVIFSLSQGRSVQEALRFGCQVAGKKCGLQGFDGIV	failed
MIDFNDIPQPEAQDRQARREEIRAALLARLESVLFALLPAGKKRGGKFLIGDVLGSPGDSLEVVLDGEKAGLWTDRATGDGGDIFGLIAAHLGADVHADFPRVLDVAADLVGRAHPAPPRKARSAPPVDGLGPATAKWDYFDPAGKLIAVVYRYDPPGRKKEFRPWDARRRKMAPPEPRPLYNQPGLVAADTVVLVEGEKCAQALIDIGVAATTAMHGANAPVDKTDWSPLAGKAVLIWPDRDKPGWEYAMAAAQAALAVGAMSCDVLLPPDDRSEGWDAADAVAEGFDVAGFLAFGPRMSIKPASVTPTQEPSVWATDDALALAFTSRYAEDWRYCAAWGKWLVWDGRRWQADETLLVHHLIRAICREAALKADSHRLAAKLAASSTVGGVERLARTDRRHASTSEEWDADLFALNTPSGIVDLKTGRIKPHDRRERMTKLATATPHGDCARWRAFLEDITGGDTALQAYLQRMVGYCLTGATSAHALFFLYGTGANGKSVFVNTLATILGDYATSAPMDTFMEARGDRHPTDLAGLRGARFVSSIETEQGRRWNESKVKAITGGDKVSARFMRQDFFEYLPQFKLVIAGNHKPAIRNVDEAMKRRLHLIPFTVTIPPEKRDGQLTEKLLAERDGILAWAVEGCLAWQRDGLNPPASVVSATEEYFDEEDAIGDFLDEEAQRFEQARVAVADVFQRWQEWATRRGEYVGTSRWLAQQLANRGFGRARLHGGVKGLAGLSLKPRDYGTRLPYRDD	failed
MTPDDFDRFWPTFQAIVQARETYAFDPALSFEQARQLWLELPLHTLLAEEDGELLGSYYLKPNAAGPGAHVGNCGYMVCEQARGRGVARLMCEHSQKLARQEGFLALQFNSVVASNEVAVALWHKLGFETVGRLPKAYRHARLGLVDCLVMYKWLAD	failed
MSNKPASQQTRLTDWLIFLAVPFFFSSNVIFGRGVVGEVSPFIAAFIRWMGSTLIIAPFMIADWRNCLAFVRDKMLLWLVLGILGMGICGGVVYWGLTMTTAANGTLIYTTSSLFIILFQRIFQGRPIRKLEVAGMVIAFAGVAAIVLKGDISALRHMNFNIGDFAILTAAIAFAIYSLLLRDPAARQMASFSLFGLIAFSGALVLLPPAALELAQGGMLPATGAAWAKIGGIILFASLLAFYCFTHTVRVFGPATAGITLYMMPPVSILMATIFLGETFETYHAIGIVLVTGGVILATAPIGRKR	failed
MKSHAEVVKTRHHEYSLVFPVIALVVLYIWGNSQDFIAILGINAVALAGILFSAFSVVRHADVLAHRLGEPYGSLILSLSVVILEVSLISALMATGDAGPDLMRDTLYSIIVIVTGGLVGFALLLGGRKFATQYVNLSGIKQYLMAIFPLAVIVLVFPSALPDGNFSVTQSLIVAAISAAMYGVFLLIQTRTHQSLFVYEHEDEGDGDDPHHGKPSAHSSLWHTGWLLVHLIAVIAVTKTNSMPLETLLTEMNAPTQFTGFLVALLILSPEGLGAIRAVLKNQVQRAMNLFFGSVLATISLTVPTVTIIAMITGRTLNFGLDMPHIVVMLSVLVLCHITFSTGRTNVLSGSAHLALFAAYLITITL	failed
YKELDVHLRRMESGFGFRILGGDEPGQPILIGAVIAMGSADRDGRLHPGDELVYVDGIPVAGKTHRYVIDLMHHAARNGQVNLTVRRKVL	not failed
MSESKEMVRGTFLITISILITKVLGVLFIIPFTALIGGQANMAPFTYAYAPYNIAIAIATAGVPLAASKYVAKYNALGAYKVSQKFYKSSFVVMSITGIVGFLVLYLLAPYIAELTLSRNTHGNNGWTVADITWIIRIISMVVIFIPVLATWRGIFQGYKSMGPTAVSEVTEQIARIVFILVGSYLTLNVFGGTVLQANGIATFAAAIGAIAGILTLWYYWIKRRKNIKKMIDSDTANLNVSYGKMYKEIIAYSIPFVIVSLNFPLFNLVDQFTHNGALNLVGVKPGLQDIFFNMLNMSTNKIVMIPTSLSAGFAVSLIPFITKTYEEGRYAEMHRQIRTSIGVLMFITVPASIGIMALAQPLFTVFYGFDPVVHGHDPNFDGSRLLFYYAPVAILISLLSVTASMLQGIDKQKLTVFIILGSVLIKLILNYPLIMLLHTPGAVLSTAIALLFAICCNFYILKKYANFKFSYSWIHLAKIILISIIMMIGVEVIFFILRLFLEPTRFNYLIIVAIGVIVGAIIYGGITIKTKLADEFLGDIPAKIRRKVKMLR	failed
MFNKKPLADTTARRPSTGAQAKIYSRDNVARYSERARQRRRSHTIRHVALIVVLGVLLSATTAAGLWFATIMGKLGDSNVITDNLRRVLVDTDEAKDPFYVLLLGTDGRPGEDTYRADSIILARIDPTQKQATLISVPRDTKVEYKGETMKINACHTVGGAEAMVEAVNELCGVQISHYAEVSFDGMQALIDSVGGIDINATDDVDDPEHLDIKITAGQQHMDGATALTYARCRYTYADGDYTRMRHQRQVLGALANQILNNFDATKIFGLVNSLSDMLVTDMSVQDIVATVNAMRGMDVDGIYSANLPSYADDSTMIDGVSYVFVYEDELKEMMERVDAGKDPKGPNTMGLSDGSSSTIGDLNNNTSDDYANGTATSSVSSDDSDDSSDSSDSDYYEEPTGDGNGYEANY	failed
MSIYDPNPDQSLARIDALEKELANLKASHNTLDIQNKILKGFISLTNVSAGRMLIKATLQKTMEASIHQTGAQLGSLFLLDGDGRVTESILARGATDQSQKKNIVGQVLDKGLAGWVRENKRTGLINDTTKDYRWLKLPDEPYQALSALGVPIVWGDELLGILTLMHSQVNHFTPACATAMEKTAELIALVLNNARIQTKHKQNETLIQQEDDLLNQAILWFPSIIFILDNQGVLLKCGGKYLAQIGLDPKESIGKSIYYLLPEANELKSLTSHALANNIIESVSVQMERVDHGTWFYDAWFSPILDNHGQVSNVVCMLLPA	failed
MEISFTRVALLAAALFFVGCDQKPQPAKTHATEVTVLEGKTMGTFWRASIPGIDAKRSAELKEKIQTQLDADDQLLSTYKKDSALMRFNDSQSLSPWPVSEAMADIVTTSLRIGAKTDGAMDITVGPLVNLWGFGPEQQPVQIPSQEQIDAMKAKTGLQHLTVINQSHQQYLQKDLPDLYVDLSTVGEGYAADHLARLMEQEGISRYLVSVGGALNSRGMNGEGLPWRVAIQKPTDKENAVQAVVDINGHGISTSGSYRNYYELDGKRLSHVIDPQTGRPIEHNLVSVTVIAPTALEADAWDTGLMVLGPEKAKEVVRREGLAVYMITKEGDSFKTWMSPQFKSFLVSEKN	not failed
MASHLFTRSRISLLKTLKPNPFTSASPIRAISGTPFLSQDPLLATESTDHDPSNHQSTSTPLPPNPATGSPLYQENWRSPIPNTPSFNQSLVPLGFLNQAPAPRIRALSETLDMNSLLNMFADWTASQRWSDMKQLFEVWVRSLDKNGKPNKPDVNLYNHYLRANLMMGASAGDMLDLVAPMEEFSVEPNTASYNLVLKAMYQARETEAAMKLLERMLLLGKDSLPDDESYDLVIGMHFGVGKNDEAMKVMDTALKSGYMLSTSVFTECVRSCVAKGRTDTLVSIIERCKAVDRNKSLCPSWILCNYIAEVAIQEDNSKLAFYAFEFMFKWITRGEMARPSVIFSVDEGLVVAGLASAARTCSSSLVEGSWTILKQSLRGRKAANPASYIAKINAYASLGNLQKAFTSLHELESAYADSEKEVVEEMLSPFTSLYPLVVACSKKGFETLDEVYFQLESLSQGDTPYKSVAALNCIILGCANTWDLDRAYQTFEAISASFGLTPNIDSYNALLYAFGKVKKTFEATNVFEHLVSIGVKPDSRTYSLLVDAHLINRDPKSALTVVDDMIKAGFEPSRETLKKLRRRCVREMDDENDDQVEALAKKFQIRMGSENRRNMLFNIDYSRGRALNN	failed
PGAAPGLFALESAIDEMALASGMDPLAFRKLNLSDKDQSVGLPWSSNHLPEAIDKAAERFGWQARKAAVGSMREGDEIIGYGMGACNWEAHQVPTDARVVLRSDGTALAQCGLQDIGTGTYTIVAQTVSELTGIPIERVEVELGSSSFPPGPVSGGSWVTASVMPAIAGATREALQKLRQYAISKDAVFAGQDPESIKVENGQLVMGEQRASFVDVLKGQRLSRAEGNFQSGMPEAGKYSFRSFGVHFVEVRWDPGISSLRVSRVVSAIDVGKVINPLAARNQVEGAIVMGIGMALFEAGEYDPRSGMPVNNNYAEYVVPVHADQPDIDVMLLDYPDYNLGEFGARGIGEIGVTGLAAAVANAVYHATGKRVRSLPITKEKLMAGL	failed
MAPRTYASVLTTPRGPAPLALYCPEAPECPKLEAISNLSFQQITQQAGTSNDQGFEFENTYVEHRINQEIESFVDTHHQEPLRKAAAQFRAVMKQEYPDSTCFITGSYPAGVDIFSSDIDFTVKVPTLEGANPFLKLMQLRKELSCYYTIFSKAYVQKGNIPVLQLMHAETKVSIDVTIDNDTSKRNTQLLAFYSQLDTRFPLLCKAMKAWAASCGVEGASRGRLNSFSLCLMLIHYLQTVQVLLNIQEIFPELNGDIVVEDDNYMKRDLKIEILEKGAFDFNQNTSSLAVLFIGFMKYYSEFNFKWNWISIKHGNVLKKKWSKTRVPKNGMPKDCRFIVVADPLLEIPRNCAGTVRQQNYMERIQLEFREEYERILKRKTIFNLYQCNWSRKLRKEGMERDLQIMILQDELRKLRIANLPTEEEVPWGTVVDFTSPRTFSPTNQHPKVFWCSEQTTENQRRDNLWPELLRTNPYAIFENLI	not failed
MNYSIRLFKIMGIPIELHITFILFLVVIIGLSIMNNSIFWAVLFILLFVSVVLHELGHSYVAKKYGVKIEKILLLPIGGVAMMDKIPKEGELRIGIAGPLVSFIIGIVLLIVSQFFDININGYPLLYTLSLLNLMLGGFNLIPAFPMDGGRILRAILSKKYGYLKSTKIAANIGKSLALIMLLFGLLSMNIILILVSLFVYFGAEQESRVVEVETIFKNIKAKDIMTPNPVYVTPDMSIEEFLDFMLKHKYFGYPVVENGKLVGCIGIGNIHKKEGTVRDYMEKPVVVSEDTDIKEILRKMANTDRVFVVEGGKLKGIISKTDILRAMSILELKEELKD	failed
